{
  "source": "patent US20260144854A1",
  "about": "(UNIVERSITY OF CHICAGO, published 2026)",
  "key": {"[1]": {"biological_target": "T1, full length recombinant CD95 protein (FL-CD95), P25445", "T1 chain": "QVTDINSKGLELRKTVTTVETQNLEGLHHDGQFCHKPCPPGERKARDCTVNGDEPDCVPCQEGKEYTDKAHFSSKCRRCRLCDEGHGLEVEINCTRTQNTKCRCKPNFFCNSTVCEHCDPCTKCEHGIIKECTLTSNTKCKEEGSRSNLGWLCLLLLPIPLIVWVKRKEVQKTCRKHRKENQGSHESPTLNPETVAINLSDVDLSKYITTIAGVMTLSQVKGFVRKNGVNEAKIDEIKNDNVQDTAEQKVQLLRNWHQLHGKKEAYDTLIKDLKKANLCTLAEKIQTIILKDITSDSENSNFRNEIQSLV"}, "[2]": {"biological_target": "alpha-1-anti-trypsin (A1AT), P01009", "sequence (P01009 whole entry, looked up)": "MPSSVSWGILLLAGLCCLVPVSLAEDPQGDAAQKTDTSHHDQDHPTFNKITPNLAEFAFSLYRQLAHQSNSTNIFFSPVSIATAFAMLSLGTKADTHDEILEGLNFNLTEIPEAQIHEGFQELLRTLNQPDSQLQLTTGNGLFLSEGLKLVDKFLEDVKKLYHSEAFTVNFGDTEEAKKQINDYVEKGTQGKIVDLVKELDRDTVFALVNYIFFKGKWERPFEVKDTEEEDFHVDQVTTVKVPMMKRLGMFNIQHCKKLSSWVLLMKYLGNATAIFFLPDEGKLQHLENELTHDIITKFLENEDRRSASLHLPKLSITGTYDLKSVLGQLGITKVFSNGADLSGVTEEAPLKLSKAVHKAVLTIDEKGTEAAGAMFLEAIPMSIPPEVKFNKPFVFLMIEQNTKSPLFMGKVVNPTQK"}, "[3]": {"biological_target": "T2, C-terminal domain of CD95 (amino acids 157-320; C-CD95), P25445", "T2 chain": "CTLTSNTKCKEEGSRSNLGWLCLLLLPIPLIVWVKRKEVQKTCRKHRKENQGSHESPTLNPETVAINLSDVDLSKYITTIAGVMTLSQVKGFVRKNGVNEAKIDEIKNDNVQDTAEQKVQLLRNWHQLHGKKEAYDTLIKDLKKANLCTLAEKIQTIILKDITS"}, "[4]": {"biological_target": "T3, human neutrophil elastase (ELANE) (human, UniProt P08246 30-247)", "T3 construct": "Native protein: in human PMN conditioned media in the co-immunoprecipitation, purified native ELANE (Abcam) in the enzyme and cleavage assays; also called human ELANE", "T3 sequence": "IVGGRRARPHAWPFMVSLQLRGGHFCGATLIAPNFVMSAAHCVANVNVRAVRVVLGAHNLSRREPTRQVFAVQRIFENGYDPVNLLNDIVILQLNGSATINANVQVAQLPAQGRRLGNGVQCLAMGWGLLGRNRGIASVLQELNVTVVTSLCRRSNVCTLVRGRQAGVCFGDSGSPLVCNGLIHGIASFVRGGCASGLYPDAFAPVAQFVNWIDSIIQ", "experiment": "from the inventors' studies of ECP as allosteric activator of ELANE (chromogenic substrate kinetics, FIG. 7); method of the KD not stated"}, "[5]": {"biological_target": "T4, human neutrophil elastase (ELANE)", "T4 chain": "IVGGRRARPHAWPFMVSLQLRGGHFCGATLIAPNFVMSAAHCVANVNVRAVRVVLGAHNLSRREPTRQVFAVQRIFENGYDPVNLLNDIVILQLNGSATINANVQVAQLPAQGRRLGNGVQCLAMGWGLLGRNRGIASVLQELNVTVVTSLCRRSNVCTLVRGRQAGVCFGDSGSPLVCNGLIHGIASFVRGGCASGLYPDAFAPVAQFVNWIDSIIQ"}},
  "data": [
    {"binder": "human neutrophil elastase (ELANE) (protein) IVGGRRARPHAWPFMVSLQLRGGHFCGATLIAPNFVMSAAHCVANVNVRAVRVVLGAHNLSRREPTRQVFAVQRIFENGYDPVNLLNDIVILQLNGSATINANVQVAQLPAQGRRLGNGVQCLAMGWGLLGRNRGIASVLQELNVTVVTSLCRRSNVCTLVRGRQAGVCFGDSGSPLVCNGLIHGIASFVRGGCASGLYPDAFAPVAQFVNWIDSIIQ", "values": [
      {"measurement": "degradation of purified CD95", "setting": "[1]", "value": "ELANE degrades the C-terminal domain of purified CD95"},
      {"measurement": "ELANE catalytic activity (chromogenic substrate assay)", "setting": "[2]", "value": "loss of ELANE catalytic activity was confirmed by a chromogenic substrate assay"},
      {"measurement": "degradation by SDS-PAGE followed by coomassie blue staining", "setting": "[3]", "value": "ELANE preferentially cleaves the C-terminal domain of CD95"}
    ]},
    {"binder": "cathepsin G (CTSG) (protein) IIGGRESRPHSRPYMAYLQIQSPAGQSRCGGFLVREDFVLTAAHCWGSNINVTLGAHNIQRRENTQQHITARRAIRHPQYNQRTIQNDIMLLQLSRRVRRNRNVNPVALPRAQEGLRPGTLCTVAGWGRVSMRRGTDTLREVQLRVQRDRQCLRIFGSYDPRRQICVGDRRERKAAFKGDSGGPLLCNNVAHGIVSYGKSSGVPPEVFTRVSSFLPWIRTTMRS", "values": [
      {"measurement": "degradation of purified CD95", "setting": "[1]", "value": "cleaved purified CD95 with an identical degradation pattern to ELANE"}
    ]},
    {"binder": "eosinophil cationic protein (ECP) (enzyme, also called ribonuclease 3) RPPQFTRAQWFAIQHISLNPPRCTIAMRAINNYRWRCKNQNTFLRTTFANVVNVCGNQSIRCPHNRTLNNCHRSRFRVPLLHCDLINPGAQNISNCTYADRPGRRFYVVACDNRDPRDSPRYPVVPVHLDTTI", "values": [
      {"measurement": "Kd", "setting": "[4]", "value": "~20", "unit": "nM"},
      {"measurement": "kcat of ELANE for its substrate (chromogenic substrate activity assay)", "setting": "[5]", "value": "increases kcat for its substrate by 12-fold without altering KM"}
    ]},
    {"binder": "murine neutrophil elastase (mELANE) (protein) IVGGRPARPHAWPFMASLQRRGGHFCGATLIARNFVMSAAHCVNGLNFRSVQVVLGAHDLRRQERTRQTFSVQRIFENGFDPSQLLNDIVIIQLNGSATINANVQVAQLPAQGQGVGDRTPCLAMGWGRLGTNRPSPSVLQELNVTVVTNMCRRRVNVCTLVPRRQAGICFGDSGGPLVCNNLVQGIDSFIRGGCGSGLYPDAFAPVAEFADWINSIIRSHNDHLLTHPKDREGRTN", "values": [
      {"measurement": "degradation of purified CD95", "setting": "[1]", "value": "cleaved purified CD95 with an identical degradation pattern to ELANE"}
    ]},
    {"binder": "proteinase 3 (PRTN3) (protein) IVGGHEAQPHSRPYMASLQMRGNPGSHFCGGTLIHPSFVLTAAHCLRDIPQRLVNVVLGAHNVRTQEPTQQHFSVAQVFLNNYDAENKLNDVLLIQLSSPANLSASVATVQLPQQDQPVPHGTQCLAMGWGRVGAHDPPAQVLQELNVTVVTFFCRPHNICTFVPRRKAGICFGDSGGPLICDGIIQGIDSFVIWGCATRLFPDFFTRVALYVDWIRSTLR", "values": [
      {"measurement": "degradation of purified CD95", "setting": "[1]", "value": "cleaved purified CD95 with an identical degradation pattern to ELANE"}
    ]}
  ]
}
